Experimental data taken from patent US20180148504A1.

Columns and labels:
[1] = molecular target: recombinant purified FRα (ECL assay calibrator) (human) (UniProt P15328); assay: ECL sandwich capture 6A2.G7 / detection 1C6.E12.G8; calibrator incubated overnight with 10 µg/mL MORAb-003
[2] = molecular target: recombinant purified FRα (ECL assay calibrator) (human) (UniProt P15328); assay: ECL sandwich capture 30G6.G6.G4.E9 / detection 19D2.G9; calibrator incubated overnight with 10 µg/mL MORAb-003
[3] = molecular target: recombinant purified FRα (ECL assay calibrator) (human) (UniProt P15328); assay: ECL sandwich capture 30G6.G6.G4.E9 / detection 24H8.D3; calibrator incubated overnight with 10 µg/mL MORAb-003
[4] = molecular target: recombinant purified FRα (ECL assay calibrator) (human) (UniProt P15328); assay: ECL sandwich capture 19D4.B7 / detection 1D2.G8.G10; calibrator incubated overnight with 10 µg/mL MORAb-003
[5] = molecular target: endogenous folate receptor alpha in human serum and plasma samples (human) (UniProt P15328); assay: ECL sandwich capture 24H8.D3 / detection 19D4.B7; serum incubated overnight with 10 µg/mL MORAb-003
Chain of endogenous folate receptor alpha in human serum and plasma samples (human) (P15328 25-234 limits assumed, form in doubt): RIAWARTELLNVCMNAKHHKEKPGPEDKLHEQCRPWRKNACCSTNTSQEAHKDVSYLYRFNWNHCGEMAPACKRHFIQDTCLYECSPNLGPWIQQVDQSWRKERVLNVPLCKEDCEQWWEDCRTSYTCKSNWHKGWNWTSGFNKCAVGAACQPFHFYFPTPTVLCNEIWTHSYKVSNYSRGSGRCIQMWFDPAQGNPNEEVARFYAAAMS

[6] = molecular target: recombinant purified FRα (ECL assay calibrator) (human) (UniProt P15328); assay: ECL sandwich, positive control +CONT: capture 26B3.F2 (f1) / detection 19D4.B7; calibrator incubated overnight with 10 µg/mL MORAb-003
[7] = molecular target: endogenous folate receptor alpha in human serum and plasma samples (human) (UniProt P15328); assay: ECL sandwich capture 6A2.G7 / detection 6A2.G7; serum incubated overnight with 10 µg/mL MORAb-003; no % sign in this cell
[8] = molecular target: recombinant purified FRα (ECL assay calibrator) (human) (UniProt P15328); assay: ECL sandwich competition; competitors 9F3 capture / 24F12 detection; FRα standard STD08; MORAb-003 50 µg/mL
[9] = molecular target: recombinant purified FRα (ECL assay calibrator) (human) (UniProt P15328); assay: ECL sandwich capture 19D4.B7 / detection 2F11.F8; calibrator incubated overnight with 10 µg/mL MORAb-003
[10] = molecular target: recombinant purified FRα (ECL assay calibrator) (human) (UniProt P15328); assay: ECL sandwich capture 30G6.G6.G4.E9 / detection 24H8.F3; calibrator incubated overnight with 10 µg/mL MORAb-003
[11] = molecular target: recombinant purified FRα (ECL assay calibrator) (human) (UniProt P15328); assay: ECL sandwich competition; competitors 9F3 capture / 24F12 detection; FRα standard STD05; MORAb-003 10 µg/mL
[12] = molecular target: recombinant purified FRα (ECL assay calibrator) (human) (UniProt P15328); assay: ECL sandwich capture 1D2.G8.G10 / detection 19D4.B7; calibrator incubated overnight with 10 µg/mL MORAb-003
[13] = molecular target: recombinant purified FRα (ECL assay calibrator) (human) (UniProt P15328); assay: ECL sandwich capture 6A2.G7 / detection 24H8.D3; calibrator incubated overnight with 10 µg/mL MORAb-003
[14] = molecular target: recombinant purified FRα (ECL assay calibrator) (human) (UniProt P15328); assay: ECL sandwich capture 6A2.G7 / detection 24H8.F3; calibrator incubated overnight with 10 µg/mL MORAb-003
[15] = molecular target: endogenous folate receptor alpha in human serum and plasma samples (human) (UniProt P15328); assay: ECL sandwich capture 19D4.B7 / detection 1D2.G8.G10; serum incubated overnight with 10 µg/mL MORAb-003
[16] = molecular target: recombinant purified FRα (ECL assay calibrator) (human) (UniProt P15328); assay: ECL sandwich capture 26A9.C4 / detection 30G6.G6.G4.E9; calibrator incubated overnight with 10 µg/mL MORAb-003
[17] = molecular target: recombinant purified FRα (ECL assay calibrator) (human) (UniProt P15328); assay: ECL sandwich capture 30G6.G6.G4.E9 / detection 2F11.F8; calibrator incubated overnight with 10 µg/mL MORAb-003
[18] = molecular target: endogenous folate receptor alpha in human serum and plasma samples (human) (UniProt P15328); assay: ECL sandwich capture 1A8.G11.E7 / detection 24H8.F3; serum incubated overnight with 10 µg/mL MORAb-003
[19] = molecular target: recombinant purified FRα (ECL assay calibrator) (human) (UniProt P15328); assay: ECL sandwich capture 24H8.F3 / detection 30G6.G6.G4.E9; calibrator incubated overnight with 10 µg/mL MORAb-003
[20] = molecular target: recombinant purified FRα (ECL assay calibrator) (human) (UniProt P15328); assay: ECL sandwich capture 26A9.C4 / detection 19D4.B7; calibrator incubated overnight with 10 µg/mL MORAb-003
[21] = molecular target: recombinant purified FRα (ECL assay calibrator) (human) (UniProt P15328); assay: ECL sandwich capture 28H12.G9 / detection 19D4.B7; calibrator incubated overnight with 10 µg/mL MORAb-003
[22] = molecular target: recombinant purified FRα (ECL assay calibrator) (human) (UniProt P15328); assay: ECL sandwich capture 24H8.F3 / detection 6A2.G7; calibrator incubated overnight with 10 µg/mL MORAb-003

Chain of recombinant purified FRα (ECL assay calibrator) (human) (P15328 25-234 limits assumed): as the sequence (P15328 25-234 limits assumed, form in doubt) above

B1: farletuzumab (MORAb-003) (antibody, part only; not given: Constant regions, V domains shown, not shown: another chain or arm of the molecule)
VH: EVQLVESGGGVVQPGRSLRLSCSASGFTFSGYGLSWVRQAPGKGLEWVAMISSGGSYTYYADSVKGRFAISRDNAKNTLFLQMDSLRPEDTGVYFCARHGDDPAWFAYWGQGTPVTVSS
VL: DIQLTQSPSSLSASVGDRVTITCSVSSSISSNNLHWYQQKPGKAPKPWIYGTSNLASGVPSRFSGSGSGTDYTFTISSLQPEDIATYYCQQWSSYPYMYTFGQGTKVEIK
Question: Which Drug Suppression of Cal Signal at 500 pg/mL [1] does the source give for B1 here?
Answer: The Drug Suppression of Cal Signal at 500 pg/mL was 6%.

Question: And the Drug Suppression of Cal Signal at 500 pg/mL [2]?
Answer: Its Drug Suppression of Cal Signal at 500 pg/mL is -5%.

Question: What about the Drug Suppression of Cal Signal at 500 pg/mL [3] of the same binder?
Answer: Its Drug Suppression of Cal Signal at 500 pg/mL is -2%.

Question: And the Drug Suppression of Cal Signal at 500 pg/mL [4]?
Answer: Its Drug Suppression of Cal Signal at 500 pg/mL is 2%.

Question: And the Drug suppression of serum [5]?
Answer: Its Drug suppression of serum is -2.8%.

Question: What about the Drug Suppression of Cal Signal at 500 pg/mL [6] of the same binder?
Answer: Its Drug Suppression of Cal Signal at 500 pg/mL is -5%.

Question: And the Drug suppression of serum [7]?
Answer: The Drug suppression of serum was -45.8.

Question: What about the % of signal without MORAb-003 (MORAb-003 interference) [8] of the same binder?
Answer: Its % of signal without MORAb-003 (MORAb-003 interference) is 115%.

Question: And the Drug Suppression of Cal Signal at 500 pg/mL [9]?
Answer: The Drug Suppression of Cal Signal at 500 pg/mL was -4%.

Question: What about the Drug Suppression of Cal Signal at 500 pg/mL [10] of the same binder?
Answer: The Drug Suppression of Cal Signal at 500 pg/mL was -8%.

Question: And the % of signal without MORAb-003 (MORAb-003 interference) [11]?
Answer: The % of signal without MORAb-003 (MORAb-003 interference) was 71%.

Question: What about the Drug Suppression of Cal Signal at 500 pg/mL [12] of the same binder?
Answer: Its Drug Suppression of Cal Signal at 500 pg/mL is -12%.

Question: What about the Drug Suppression of Cal Signal at 500 pg/mL [13] of the same binder?
Answer: Its Drug Suppression of Cal Signal at 500 pg/mL is -9%.

Question: What about the Drug Suppression of Cal Signal at 500 pg/mL [14] of the same binder?
Answer: The Drug Suppression of Cal Signal at 500 pg/mL was -5%.

Question: What about the Drug suppression of serum [15] of the same binder?
Answer: The Drug suppression of serum was -2.12%.

Question: And the Drug Suppression of Cal Signal at 500 pg/mL [16]?
Answer: Its Drug Suppression of Cal Signal at 500 pg/mL is -28%.

Question: What about the Drug Suppression of Cal Signal at 500 pg/mL [17] of the same binder?
Answer: The Drug Suppression of Cal Signal at 500 pg/mL was -1%.

Question: What about the Drug suppression of serum [18] of the same binder?
Answer: Its Drug suppression of serum is -61.3%.

Question: What about the Drug Suppression of Cal Signal at 500 pg/mL [19] of the same binder?
Answer: The Drug Suppression of Cal Signal at 500 pg/mL was -6%.

Question: And the Drug Suppression of Cal Signal at 500 pg/mL [20]?
Answer: Its Drug Suppression of Cal Signal at 500 pg/mL is 72%.

Question: What about the Drug Suppression of Cal Signal at 500 pg/mL [21] of the same binder?
Answer: The Drug Suppression of Cal Signal at 500 pg/mL was -17%.

Question: And the Drug Suppression of Cal Signal at 500 pg/mL [22]?
Answer: Its Drug Suppression of Cal Signal at 500 pg/mL is 7%.
